Results as given in patent US20100260668A1 (published 2010).

B1: DVD473 (bispecific antibody, human IgG1, kappa)
heavy: not shown
light: DIQMTQSPSSLSASVGDRVTITCRASQDVSTAVAWYQQKPGKAPKLLIYSASFLYSGVPSRFSGSGSGTDFTLTISSLQPEDFATTYYCQQSYTGTVTFGQGTKVEIKRTVAAPSVFIFPPDIQMTQSPSSLSASVGDRVTITCRASQVIRRSLAWYQQKPGKAPKLLIYAASNLASGVPSRFSGSGSGTDFTLTISSLQPEDFATYYCQQSNTSPLTFGQGTKVEIKRTVAAPSVFIFPPSDEQLKSGTASVVCLLNNFYPREAKVQWKVDNALQSGNSQESVTEQDSKDSTYSLSSTLTLSKADYEKHKVYACEVTHQGLSSPVTKSFNRGEC
notes: DVD-Ig; outer AB015 (DLL4), inner AB071 (VEGF); HC long, LC long linker; also called DVD473H; DVD473L
B2: DVD451 (bispecific antibody, human IgG1, kappa, L234A L235A)
heavy: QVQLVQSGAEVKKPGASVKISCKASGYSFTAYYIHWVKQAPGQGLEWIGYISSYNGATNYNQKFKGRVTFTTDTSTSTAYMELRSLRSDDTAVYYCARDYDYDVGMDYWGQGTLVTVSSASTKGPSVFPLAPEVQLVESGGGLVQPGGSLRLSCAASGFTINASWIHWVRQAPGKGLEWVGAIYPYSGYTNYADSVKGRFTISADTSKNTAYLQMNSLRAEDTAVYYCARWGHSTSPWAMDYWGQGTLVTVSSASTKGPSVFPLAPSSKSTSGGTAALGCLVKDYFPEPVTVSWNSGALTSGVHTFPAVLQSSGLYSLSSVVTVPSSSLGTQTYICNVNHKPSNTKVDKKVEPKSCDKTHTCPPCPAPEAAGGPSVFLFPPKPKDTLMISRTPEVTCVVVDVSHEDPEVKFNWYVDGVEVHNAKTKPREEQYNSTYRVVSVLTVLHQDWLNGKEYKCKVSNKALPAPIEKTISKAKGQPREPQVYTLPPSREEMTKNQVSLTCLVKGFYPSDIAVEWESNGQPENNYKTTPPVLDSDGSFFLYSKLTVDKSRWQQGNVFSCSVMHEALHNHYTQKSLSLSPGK
light: DIVMTQSPDSLAVSLGERATISCRASESVDNYGISFMKWFQQKPGQPPKLLIYAASNQGSGVPDRFSGSGSGTDFTLTISSLQAEDVAVYYCQQSKEVPWTFGGGTKVEIKRTVAAPSVFIFPPDIQMTQSPSSLSASVGDRVTITCRASQVIRRSLAWYQQKPGKAPKLLIYAASNLASGVPSRFSGSGSGTDFTLTISSLQPEDFATYYCQQSNTSPLTFGQGTKVEIKRTVAAPSVFIFPPSDEQLKSGTASVVCLLNNFYPREAKVQWKVDNALQSGNSQESVTEQDSKDSTYSLSSTLTLSKADYEKHKVYACEVTHQGLSSPVTKSFNRGEC
notes: DVD-Ig; outer AB069 (DLL4), inner AB071 (VEGF); HC long, LC long linker; also called DVD451H; DVD451L
B3: DVD521 (bispecific antibody, human IgG1, kappa, lambda, L234A L235A)
heavy: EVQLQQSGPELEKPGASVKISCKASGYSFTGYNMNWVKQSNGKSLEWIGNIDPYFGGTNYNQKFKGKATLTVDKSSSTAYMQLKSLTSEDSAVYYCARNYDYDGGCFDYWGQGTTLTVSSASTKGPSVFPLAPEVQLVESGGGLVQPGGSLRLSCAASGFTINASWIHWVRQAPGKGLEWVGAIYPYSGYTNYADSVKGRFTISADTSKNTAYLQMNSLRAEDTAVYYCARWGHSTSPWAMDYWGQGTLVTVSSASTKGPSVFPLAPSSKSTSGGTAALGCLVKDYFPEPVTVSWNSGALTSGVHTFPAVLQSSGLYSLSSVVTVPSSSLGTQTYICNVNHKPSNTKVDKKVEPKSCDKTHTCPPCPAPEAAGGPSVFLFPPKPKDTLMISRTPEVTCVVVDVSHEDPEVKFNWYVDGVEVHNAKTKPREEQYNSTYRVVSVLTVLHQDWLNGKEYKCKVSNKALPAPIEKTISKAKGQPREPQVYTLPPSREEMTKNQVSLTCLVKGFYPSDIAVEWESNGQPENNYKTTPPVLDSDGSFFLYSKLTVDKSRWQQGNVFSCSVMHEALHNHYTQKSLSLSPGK
light: QAVVTQESALTTSPGETVTLTCRSSTGAVTTSNYANWVQEKPDHLFTGLIGGTNNRAPGVPARFSGSLIGDKAALTITGAQTEDEAIYFCALWYSNHWVFGGGTKLTVLGQPKAAPSVTLFPPDIQMTQSPSSLSASVGDRVTITCRASQVIRRSLAWYQQKPGKAPKLLIYAASNLASGVPSRFSGSGSGTDFTLTISSLQPEDFATYYCQQSNTSPLTFGQGTKVEIKRTVAAPSVFIFPPSDEQLKSGTASVVCLLNNFYPREAKVQWKVDNALQSGNSQESVTEQDSKDSTYSLSSTLTLSKADYEKHKVYACEVTHQGLSSPVTKSFNRGEC
notes: DVD-Ig; outer AB073 (DLL4), inner AB071 (VEGF); HC long, LC long linker; also called DVD521H; DVD521L
B4: DVD497 (bispecific antibody, human IgG1, kappa)
heavy: not shown
light: DIQMTQSSSYLSVSLGGRVTITCKASDHINNWLAWYQQKPGNAPRLLISGATSLETGVPSRFSGSGSGKDYTLSITSLQTEDVATYYCQQYWSIPLTFGAGTKLELKRTVAAPSVFIFPPDIQMTQSPSSLSASVGDRVTITCRASQVIRRSLAWYQQKPGKAPKLLIYAASNLASGVPSRFSGSGSGTDFTLTISSLQPEDFATYYCQQSNTSPLTFGQGTKVEIKRTVAAPSVFIFPPSDEQLKSGTASVVCLLNNFYPREAKVQWKVDNALQSGNSQESVTEQDSKDSTYSLSSTLTLSKADYEKHKVYACEVTHQGLSSPVTKSFNRGEC
notes: DVD-Ig; outer AB072 (DLL4), inner AB071 (VEGF); HC long, LC long linker; also called DVD497H; DVD497L
B5: DVD479 (bispecific antibody, human IgG1, kappa)
heavy: not shown
light: DIQMTQSPSSLSASVGDRVTITCRASQDVSTAVAWYQQKPGKAPKLLIYSASFLYSGVPSRFSGSGSGTDFTLTISSLQPEDFATTYYCQQSYTGTVTFGQGTKVEIKRTVAAPDIQMTQSPSSLSASVGDRVTITCRASQVIRRSLAWYQQKPGKAPKLLIYAASNLASGVPSRFSGSGSGTDFTLTISSLQPEDFATYYCQQSNTSPLTFGQGTKVEIKRTVAAPSVFIFPPSDEQLKSGTASVVCLLNNFYPREAKVQWKVDNALQSGNSQESVTEQDSKDSTYSLSSTLTLSKADYEKHKVYACEVTHQGLSSPVTKSFNRGEC
notes: DVD-Ig; outer AB015 (DLL4), inner AB071 (VEGF); HC long, LC short linker; also called DVD479H; DVD479L
B6: DVD457 (bispecific antibody, human IgG1, kappa, L234A L235A)
heavy: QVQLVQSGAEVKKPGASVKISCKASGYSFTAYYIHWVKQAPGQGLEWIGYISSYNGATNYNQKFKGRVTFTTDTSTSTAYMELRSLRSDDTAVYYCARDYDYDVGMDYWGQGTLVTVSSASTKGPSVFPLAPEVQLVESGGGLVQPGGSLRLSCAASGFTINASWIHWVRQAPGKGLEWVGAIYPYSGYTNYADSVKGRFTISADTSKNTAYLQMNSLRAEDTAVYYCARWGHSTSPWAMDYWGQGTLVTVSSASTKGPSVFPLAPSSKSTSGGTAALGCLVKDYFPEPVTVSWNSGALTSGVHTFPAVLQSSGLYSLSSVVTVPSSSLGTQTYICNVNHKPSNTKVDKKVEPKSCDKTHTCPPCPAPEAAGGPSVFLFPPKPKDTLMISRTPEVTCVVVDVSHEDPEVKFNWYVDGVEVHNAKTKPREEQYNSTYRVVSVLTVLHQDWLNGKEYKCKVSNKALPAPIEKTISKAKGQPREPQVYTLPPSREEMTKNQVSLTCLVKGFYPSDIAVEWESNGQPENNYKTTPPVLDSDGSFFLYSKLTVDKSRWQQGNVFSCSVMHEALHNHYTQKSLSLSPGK
light: DIVMTQSPDSLAVSLGERATISCRASESVDNYGISFMKWFQQKPGQPPKLLIYAASNQGSGVPDRFSGSGSGTDFTLTISSLQAEDVAVYYCQQSKEVPWTFGGGTKVEIKRTVAAPDIQMTQSPSSLSASVGDRVTITCRASQVIRRSLAWYQQKPGKAPKLLIYAASNLASGVPSRFSGSGSGTDFTLTISSLQPEDFATYYCQQSNTSPLTFGQGTKVEIKRTVAAPSVFIFPPSDEQLKSGTASVVCLLNNFYPREAKVQWKVDNALQSGNSQESVTEQDSKDSTYSLSSTLTLSKADYEKHKVYACEVTHQGLSSPVTKSFNRGEC
notes: DVD-Ig; outer AB069 (DLL4), inner AB071 (VEGF); HC long, LC short linker; also called DVD457H; DVD457L
B7: DVD527 (bispecific antibody, human IgG1, kappa)
heavy: not shown
light: QAVVTQESALTTSPGETVTLTCRSSTGAVTTSNYANWVQEKPDHLFTGLIGGTNNRAPGVPARFSGSLIGDKAALTITGAQTEDEAIYFCALWYSNHWVFGGGTKLTVLGQPKAAPDIQMTQSPSSLSASVGDRVTITCRASQVIRRSLAWYQQKPGKAPKLLIYAASNLASGVPSRFSGSGSGTDFTLTISSLQPEDFATYYCQQSNTSPLTFGQGTKVEIKRTVAAPSVFIFPPSDEQLKSGTASVVCLLNNFYPREAKVQWKVDNALQSGNSQESVTEQDSKDSTYSLSSTLTLSKADYEKHKVYACEVTHQGLSSPVTKSFNRGEC
notes: DVD-Ig; outer AB073 (DLL4), inner AB071 (VEGF); HC long, LC short linker; also called DVD527H; DVD527L
B8: DVD503 (bispecific antibody, human IgG1, kappa)
heavy: not shown
light: DIQMTQSSSYLSVSLGGRVTITCKASDHINNWLAWYQQKPGNAPRLLISGATSLETGVPSRFSGSGSGKDYTLSITSLQTEDVATYYCQQYWSIPLTFGAGTKLELKRTVAAPDIQMTQSPSSLSASVGDRVTITCRASQVIRRSLAWYQQKPGKAPKLLIYAASNLASGVPSRFSGSGSGTDFTLTISSLQPEDFATYYCQQSNTSPLTFGQGTKVEIKRTVAAPSVFIFPPSDEQLKSGTASVVCLLNNFYPREAKVQWKVDNALQSGNSQESVTEQDSKDSTYSLSSTLTLSKADYEKHKVYACEVTHQGLSSPVTKSFNRGEC
notes: DVD-Ig; outer AB072 (DLL4), inner AB071 (VEGF); HC long, LC short linker; also called DVD503H; DVD503L
B9: DVD445 (bispecific antibody, human IgG1, kappa)
heavy: not shown
light: B6 light
notes: DVD-Ig; outer AB069 (DLL4), inner AB071 (VEGF); HC short, LC short linker; also called DVD445H; DVD445L
B10: DVD515 (bispecific antibody, human IgG1, kappa)
heavy: not shown
light: B7 light
notes: DVD-Ig; outer AB073 (DLL4), inner AB071 (VEGF); HC short, LC short linker; also called DVD515H; DVD515L
B11: DVD491 (bispecific antibody, human IgG1, kappa)
heavy: not shown
light: B8 light
notes: DVD-Ig; outer AB072 (DLL4), inner AB071 (VEGF); HC short, LC short linker; also called DVD491H; DVD491L

The binders below were run against T1, DLL4 ECD/His tag (R&D 1506-D4-050) (UniProt Q9NR61 27-529) (assay: direct bind ELISA, DLL4 on plate; DLL4 VD N-term.; HC Long, LC Long).
T1 construct: extracellular domain; Bought antigen coated on the ELISA plate; not shown: His tag

Binder | EC50
B1 | 1.8 nM
B2 | 0.4 nM
B3 | 0.26 nM
B4 | 0.53 nM

What follows are binders tested against T1, DLL4 ECD/His tag (R&D 1506-D4-050) (assay: direct bind ELISA, DLL4 on plate; DLL4 VD N-term.; HC Long, LC Short).
Procedure: (§1) Enzyme Linked Immunosorbent Assays to screen for antibodies that bind a desired target antigen were performed as follows. […] Plates were washed four times with PBS containing 0.02% Tween 20. Plates were blocked by the addition of 300 μL/well blocking solution (non-fat dry milk powder, various retail suppliers, diluted to 2% in PBS) for ½ hour at room temperature. Plates were washed four times after blocking with PBS containing 0.02% Tween 20.
(§2) Alternatively, one hundred microliters per well of 10 μg/ml of Histidine (His) tagged desired target antigen (R&D Systems, Minneapolis, Minn.) was added to ELISA plates coated with monoclonal mouse anti-polyHistidine antibody as described above and incubated for 1 hour at room temperature. Wells were washed four times with PBS containing 0.02% Tween 20.
One hundred microliters of antibody or DVD-Ig preparations diluted in blocking solution as described above was added to the desired target antigen plate or desired target antigen/FC fusion plate or the anti-polyHistidine antibody/His tagged desired target antigen plate prepared as described above and incubated for 1 hour at room temperature. Wells are washed four times with PBS containing 0.02% Tween 20.

Binder | EC50
B5 | 1.69 nM
B6 | 0.13 nM
B7 | 0.2 nM
B8 | 0.33 nM

What follows are binders tested against T1, DLL4 ECD/His tag (R&D 1506-D4-050) (assay: direct bind ELISA, DLL4 on plate; DLL4 VD N-term.; HC Short, LC Short).
Procedure: as §1, §2
Plates were washed 4 times with PBS containing 0.02% Tween 20.

Binder | EC50
B9 | 0.17 nM
B10 | 0.2 nM
B11 | 0.39 nM
